Laboratory results from a protein production outcome set (Wang et al. 2014).

Assay: label from the status in PepcDB records

Sequence	protein production
MLKQRIITALLLVPVALYGVFMLPLWGFALFIQGVLMLGAWEWSPLMGVRRISARIAYTLFVGAIIGVLSWLAPYEHLWEGGELSKLIYYTILAGGVWWVVALAMIVNYPSSRRMWSRTRAIVGVFGLLIFIPTWAALVTVRSIDIDESRFFGGWVVLFILLLVWAADVGAYFAGVRYGRNKMMPAVSPGKTMEGLCGGVTLAFVVMMVVAHWTKVPADQFTGYYLTGLFTVVASVFGDLNESMFKRSAGVKDSGSILPGHGGILDRIDSLTAAVPIFTLAYLEFLH	failed
MRLLVAFAVIYFISISPVCAENTASTINIPTPAIESPLASKSLLLDISLIGQEKLVTVGQHGHILLSNDGKKWQQANVPVQVTLTNVFFLNEQLGWAVGHDATILHSQDGGLNWQVQQYLPLLEKPLFDIYFKNPQQGIAVGAYGQVFRTNDGGSTWQNEFHQEILLADDVEYLNELKAEDEAAYLDEITFILPHFNRLVQDGGSLFLLGETGLLAKSDDFGLTWQQFDNFYQGSFFSLARTKTGNVLVAGLRGHVFRSLNHGSQWDEVPTNTTALLNDIVFANDERIFILGNNGMLLISTDDGESFSKIPQQDGKTLIAGVWFKGQLIAVSDVGIKVVDLSQELEHHHHHH	failed
MPTATDARGHTVTLDHRPRRILSLVPSQTELLAHLDLADEVVGITRFCERPEHWRSEKAIVGGTKQVDFDTVRDLDPDLVLANHEENTAEDVETLDEIAPVFVTEVKTVEDALGMIRTVGTLTETSDQTSTLVGKIISRFESLPDFTSLRAAYLIWRDPYMTIGNDTFIHDVMHWGGLENAYGDQTRYPDVTIADLAEQDLDVVLCSSEPFPFHEKDAFTADLREALPDTSVEIVDGQPFSWYGPRLLDTPSYLKTLRERLPTPAPRR	failed
EMVLLPAPQIPLIMKIMKNHTPTWLPGVPTLYEKIVAEATAKGVEIKGIRNSFSGASTLPVRTVEDWENLTGGLLVEGYGLTETSPVLCGNPMNGNRRPGYIGVPFPDTEIRIANPDNLDETMPDGEAGEVLARGPQIFQGYLNKPEATAATFHGDWFRTGDMGVMEEDGFIRLVSRIKEIIITGGFNVYPAEVEEALIAHPDVDDAAVVGRPRKDGSEDVVACIVLKDGAALDPEGLKTHCRKLLTRYKVPRTFYHFEALNKDQLGKVRRREVQQTLLERLGEK	failed
MKTDIILAGVGGQGILSIAAAIGSAALTNNLYLKQAETHGMSQRGGDVQSFLRLSDAPIYSDLIPIGGADLILSVEPMEALRYLPYLKPDGYVVTNTVPFINIPNYPETTSVISKIESLPHHVLIDADSIARDEVGNVRASNFVMLGAASPFIEIPFDYLAGGIEAIFSRKGQEVVDMNLKALNAGREFALRYAAGK	not failed
MTTATAGLAVELKQSTAQAHEKAEHSTFMSDLLKGRLGVAEFTRLQEQAWLFYTALEQAVDAVRASGFAESLLDPALNRAEVLARDLDKLNGSSEWRSRITASPAVIDYVNRLEEIRDNVDGPALVAHHYVRYLGDLSGGQVIARMMQRHYGVDPEALGFYHFEGIAKLKVYKDEYREKLNNLELSDEQREHLLKEATDAFVFNHQVFADLGKGL	not failed
VDAGRGAEHDEAVTSDDSASVEVPRRATPADAATVAQMLHDFNTEFGAPTPGTDELASRLSHLLAGEDVVVLLAGEPPTGLAVLSFRPNVWYPGPVAILDELYVRPGRRGHRLGSALLAASCGLVRSRGGALLEINVDGEDTDARRFYEARGFTNTEPNGTEPMLYYYREL	not failed
MLIRKADAQDLDAICRLAAQINRQHHQALPELFLAAADADADRAFWRARLEGEDSVLLVAEREGAVLAFLTAQLQSSPPLPFLQARRICRIGTIVVDEACQGQGIGSRLLAAAEDWGRRQDADELRLEVMQFNQGALAFYARHGLAAQSQIMSKSLAGAAR	failed
MARLILERFLQEHEETPPSKSIINSMLRDPSQIPDGVLANQVYQCIVNDCCYGPLVDCIKHAIGHEHEVLLRDLLLEKNLSFLDEDQLRAKGYDKTPDFILQVPVAVEGHIIHWIESKASFGDECSHHAYLHDQFWSYWNRFGPGLVIYWYGFIQELDCNRERGILLKACFPTNIVTLCHSIA	failed
MTLTALFAAFCGLYLLIGGAWLVVLGGSWYYPIAGLVMLGVTVMLFRGKRAALWLYAALLLATMIWGVWEVGFDFWALTPRSDILVFFGIWLILPFVWRRLPVPSAGAVGALVVALLISGGMLTWAGFNDPQEVNGTLSADATPAAPISTVADGDWPAYGRNQEGQRFSPLKQINADNVKNLKEAWVFRTGDLKQPNDPGEITNEVTPIKVGDTLFLCTAHQRLFALDAATGKEKWHFDPQLNADPSFQHVTCRGVSYHEAKADNAPADVVADCPRRIILPVNDGRLFAVNADNGKLCETFANKGILNLQTNMPVTTPGMYEPTSPPIITDKTIVIAGAVTDNFSTREPSGVIRGFDVNTGKLLWAFDPGAKDPNAIPSDEHHFTLNSPNSWAPAAYDAKLDLVYLPMGVTTPDIWGGNRTPEQERYASSIVALNATTGKLAWSYQTVHHDLWDMDMPSQPTLADIEVNGKTVPVIYAPAKTGNIFVLDRRNGELVVPAPEKPVPQGAAKGDYVTKTQPFSDLSFRPKKDLTGADMWGATMFDQLVCRVIFHQLRYEGIFTPPSEQGTLVFPGNLGMFEWGGISVDPNRQVAIANPMALPFVSKLIPRGPGNPMEPPKDAKGSGTESGVQPQYGVPYGVTLNPFLSPFGLPCKQPAWGYISALDLKTNEVVWKKRIGTPQDSLPFPMPVKLPFTMGMPMLGGPISTAGNVLFIGATADNYLRAYNMSNGEKLWEARLPAGGQATPMTYEVNGKQYVVISAGGHGSFGTKMGDYIVAYALPDDAK	failed
KRSHLENALNYALENSETAYNEMFLECDKQFILESWLNDFDLTKDYNETMHLVFSIKDKPDEETMQGLLHSTWESLKIRLPEYKFALVPHAHQDHAHIHCFINKTNQLTRRRLRFKGHEDCKEFFNELRSEFAYRLNDHLLSEEYLYVNEPKLKELDNIKQQLQDLEKEEKALEQIKSPQDEWDLNKALQSEYLQELKYKNKAKALDIQNNHSTPLKQKISEFKIALFNHKDTSDDEKEQLDIDRIDKRKPVSEHLKNTNKHELYELLGFYQKELDKKQNHSAFKNFAILNGLDRDFERETNGYSVLKKKEMLLNKLEHLDKRLLDKNSHLLLAQ	failed
RFRVTPYHGNLLGDHERLAAFREAISSRARGLTYDLGAGSGILSFFASEYADRVIAIERDPKIAACAGENLSGLDNVSVVNEDALHYEFSAADTIICEMLDTALIDEEQVPVLRRALKFLRNDGTVIPQAVF	failed
MTLPSTPMPPAGSRKILLDDFQHVGSESHLGQCVNRSWTRHNCGHLENASIICTSEGMALSPHLDGNRQPSNLDNLREKAFLYQRHQHLLKFHHQLPAAGACMEVRLLNGTGRCLGRVEVLIQGTWGTVCDHFWNLAEAAVVCRQLQCGQAMAAHFGASSGKVLLDDMQCVGSKSHLGRCVHRGWARHNCGHLEDASVICAGEGLVVNLHLEGCF	failed
MNLKTLKIFIEGYGCTLNTADTNIINNSIKKFKNFIIVNNLDDADIVVINTCVVRLETEHKMISRINYIKSLNKYIVIAGCMPKALKKKAEKINPDILIMPKEAHLIGDIIYNYFKNNIGNENNADNKIEDSMKCGELPHNQASSSGNYNDIDNKLTQLKPNNLIMPLPISEGCTGKCTYCIVKIARGRLASYNPDKIINKAKEFVDNGVKQMLITSQDTACYGFDKNTTLPTLLNEICQIKGDFNIRIGMMHAKNVPMIIDELIDRYKDDKITKFFHLPIQSGDDDVLRAMKREYTVDEYMDIAMEFKRKIKDLNFNTDVIVGFPTETEDNFNNTIELLKKLKPDAIHGAKYTQRKGTEADRLKQVDTKIRKERMKILDKLRKEFSLENHEKYVGKIMPCLIVGKNEGITHNCKTVKFENCEDVKIGEFRKIKIKEALTFGLYGEIIN	failed
MKIYLVGGAVRDALLGLPVKDKDWVVVGATPQEMLDAGYQQVGRDFPVFLHPQTHEEYALARTERKSGSGYTGFTCYAAPDVTLEADLQRRDLTINALARDDAGQIIDPYHGRRDLEARLLRHVSPAFGEDPLRVLRVARFAARYAHLSFRIADETLALMREMTAAGELEHLTPERVWKETENALTTRNPQVYFQVLRDCGALRVLFPEIDALFGVPAPAKWHPEIDTGVHTLMTLSMAAMLSPQLDVRFATLCHDLGKGLTPKNLWPRHHGHGPAGVKLVEQLCQRLRVPNDLRDLAKLVAEYHDLIHTFPILQPKTIVKLFDAIDAWRKPQRVEQIALTSEADVRGRTGFEASDYPQGRWLREAWQVAQAVPTKEVVEAGFKGIEIREELTKRRIAAVANWKEKRCPNPAS	failed
MIRNIVFDLGGVLIHLNREESIRRFKAIGVADIEEMLDPYLQKGLFLDLESGRKSEEEFRTELSRYIGKELTYQQVYDALLGFLEEISAEKFDYIDSLRPDYRLFLLSNTNPYVLDLAMSPRFLPSGRTLDSFFDKVYASCQMGKYKPNEDIFLEMIADSGMKPEETLFIDDGPANVATAERLGFHTYCPDNGENWIPAITRLLREQK	not failed
KESLQVTLYRDNHAWCPYCQKVWLWLEEKQIPYRIKKVTMFCYGEKEDWYKKLVPSGMLPALELDGRFYTESDDILIALEKAFGPLLWAMEDPLVLPLRKLERLLFRAWCNWLCYPAM	failed
MISSATKTLQTNNKTIYVAILSTLTFFLFLDYIPGLQAWSAWVTPPVALFLGLIFALTCGQAHPKFNKKTSKYLLQYSVVGLGFGMNLQSALASGKEGMEFTVISVVGTLLIGWFIGRKIFKIDRNTSYLISSGTAICGGSAIAAIGPVLRAKDSEMSVALGTIFILNAIALFIFPAIGHALDMTEHQFGTWAAIAIHDTSSVVGAGAAYGEEALKVATTIKLTRALWIIPMAFATSFIFKSKGQKISIPWFIFFFILAMIANTYLLNGVPQLGAAINGIARKTLTITMFFIGASLSLDVLRSVGVKPLIQGVLLWVVISLSTLAYIYFV	failed
MRWDVVAWAVLALLLIAAETLAPGAFLLWMGIAAAAVCVLVLAVPGTSVLLQIVAFVVLSFVAIQVYRTWFRGKGRQSDRPLLNRRAEQLIGRSVLLDQAIVDGRGRAKVDDAFWVVSGPDLPAGALVRIVAVDGMTLQVQPNT	failed
MSLALQYFKALSDETRLRLIHVLNRHELSVNELVSILEMGQSRVSRHLKILTGAGLLTSRRDGLWVFYSAAAEGDGRAFLDAVTPFVTTDMVLQADLDMAQKIIEERALKTRQFFNAIAEDWDELNREVLGGFDLAGAVAEAMPQCETAVDLGCGTGSVIERMLQRSQQVIGVDGSPRMLELARRRFVEGAERVSLRIGELDHLPLRDGEADFASINMVLHHLSDPGVALGEIRRVLRLGGQLMVTDFDRHDNERMRSDYGDRWLGFEGVQLEGLLREAGFTVRECRRQGVAKGLALHLMLAEKTQQ	failed
RTEAGDAYYSKFANNTPLPALMVSRKKFGSSYVYDKSYKTWDVPIAEQMEQKAKINIFAVAEYTDTQKIKVTVKGKILEGNTLPKSMVQVYLLEDKLIAPQVDGNTTVENYEHNHVLRGAVNGIWGEEFVNLKDYLYTYAVEPLSGMSFVAENYSIVAFVYDVQTFEVYDVVHVKINPQSDGK	not failed
